Data on nine molecules can be found in US20210363269A1 (ALX ONCOLOGY, published 2021).

Numbering of substitutions follows the chain as printed.

First the molecules themselves.
B1: antibody 119 (antibody, V domains shown)
VH: DVQLLESGGGVVQPGGSLRLSCAASGFSFSNFAMTWVRQAPGEGLEWVSTIGSGDTYYADSVKGRFTISRDNSKNTLYLQMNSLRAEDTAVYYCAKDSTVSWSGDFFDYWGLGTLVTVSS
VL: EIVLTQSPATLSVSPGERATFSCRASQNVKNDLAWYQQRPGQAPRLLIYAARIRETGIPERFSGSGSGTEFTLTITSLQSEDFAVYYCQQYYDWPPFTFGGGTKVEIK
notes: also called AB119; S119
B2: Hum8/AB21_HC_Mutall (antibody, V domains shown)
VH: EVQLVESGGGVVQPGGSLRLSCAASGFTFSSNAMSWVRQAPGKGLEWVAGISAGGSDTYYPASVKGRFTISRDNSKNTLYLQMNSLRAEDTAVYYCARETWNHLFDYWGQGTLVTVSS
VL: SYELTQPPSVSVSPGQTARITCSGGAYSSYYYAWYQQKPGQAPVLVIYSDSKRPSGIPERFSGSSSGTTVTLTISGVQAEDEADYYCGGYDQSSYTNPFGGGTKLTVL
notes: also called Hum8/AB21mutall
B3: antibody 136 variant, light chain wt / heavy chain Mut (antibody, V domains shown)
VH: EVQLVESGGGVVQPGRSLRLSCAASGFTFSSYDVNWVRQAPGKGLEWVSLISGSGEIIYYADSVKGRFTISRDNSKNTLYLQMNSLRAEDTAVYYCAKENNRYRFFDDWGQGTLVTVSS
VL: ETVLTQSPGTLTLSPGERATLTCRASQSVYTYLAWYQEKPGQAPRLLIYGASSRATGIPDRFSGSGSGTEFTLTISSLQSEDFAVYYCQQYYDRPPLTFGGGTKVEIK
B4: antibody 136 variant, light chain Mut_I2T / heavy chain Mut_V34M (antibody, V domains shown)
VH: B3 VH with V34M
VL: B3 VL with T12S, T22S, E38Q
B5: antibody 136 variant, light chain Mut_I2T / heavy chain Mut (antibody, V domains shown)
VH: B3 VH
VL: B3 VL with T12S, T22S, E38Q
B6: antibody 135 variant, light chain wt / heavy chain Mut_V34M (antibody, V domains shown)
VH: B1 VH with D1E, L5V, N31I, F32Y, T35S, E43K, S53A, G54D, S101G, L112Q
VL: EIVLTQSPATLSVSPGERVTFSCRASQNVRSDIAWYQQKPGQAPRLLIYAASSRDTGIPDRFSGSGSGTDFTLTISSLQSEDFGVYYCQQYYDWPPFTFGGGTKVEIK
B7: antibody 135 variant, light chain Mut / heavy chain Mut (antibody, V domains shown)
VH: EVQLVESGGGVVQPGGSLRLSCAASGFSFSIYAVSWVRQAPGKGLEWVSTIGADDTYYADSVKGRFTISRDNSKNTLYLQMNSLRAEDTAVYYCAKDSTVGWSGDFFDYWGQGTLVTVSS
VL: B6 VL with F21L, D60A
B8: antibody 119 variant, light chain Mut / heavy chain Mut (antibody, V domains shown)
VH: B1 VH with D1E, M34V, E43K, L112Q
VL: B1 VL with F21L, R39K, E60A, T76S
B9: antibody 119 variant, light chain Mut / heavy chain Mut_V34M (antibody, V domains shown)
VH: B1 VH with D1E, E43K, L112Q
VL: B1 VL with F21L, R39K, E60A, T76S

T9 sequence (Q9P1W8 29-147 limits assumed): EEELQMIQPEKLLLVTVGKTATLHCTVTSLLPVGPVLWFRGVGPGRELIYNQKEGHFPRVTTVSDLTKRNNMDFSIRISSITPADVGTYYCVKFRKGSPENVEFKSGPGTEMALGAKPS

For one experiment, the target named is T1, human SIRP-α v1 (human, UniProt P78324 31-149).
T1 construct: also called Human v1; Human V1
T1 sequence (P78324 31-149 limits assumed): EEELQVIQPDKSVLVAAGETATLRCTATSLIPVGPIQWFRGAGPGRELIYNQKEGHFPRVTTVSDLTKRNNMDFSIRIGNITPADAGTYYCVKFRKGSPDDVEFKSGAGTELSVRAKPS
The experiment is described as follows: SPR. The essentials:
(§1)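 SIRP analytes at nominal, A280-based concentrations were injected in one-shot kinetic mode over purified antibodies that were amine-coupled to a GLC chip or captured by biotinylated Protein A on an NLC chip of a ProteOn XPR36. All runs were at 25° C in PBS pH 7.4 with 0.01% Tween-20. Apparent ka and kd came from a global simple Langmuir fit of double-referenced data, with KD as their ratio kd/ka.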
Background: SPR reads the build-up and loss of mass on a sensor chip optically.
Turning to B1, binding was characterised by a dissociation constant (Kd) of 0.183 nM.

In the next experiment the target is T2, human SIRP-α v2 (human).
T2 construct: also called Human v2; Human V2
T2 sequence (chain, as listed by the source limits assumed): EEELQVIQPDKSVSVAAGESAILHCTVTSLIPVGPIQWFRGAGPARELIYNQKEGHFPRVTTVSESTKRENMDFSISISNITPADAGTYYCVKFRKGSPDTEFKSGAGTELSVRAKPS
The experiment is described as follows: SPR. The essentials:
as §1
Take B1: the Kd (as a rule, the free concentration of one partner at which half of the binding sites on the other are occupied at equilibrium, for simple one-to-one binding) came out at 0.0799 nM.

For a further experiment, the target named is T1, human SIRP-α v1. The experiment can be described thus: SPR. The source holds these as a separate data set. The essentials: as §1
With B2, binding was put at a Kd of 0.0201 nM.

The next experiment has as its target T3, NOD mouse SIRP-α (mouse (NOD strain)).
T3 chain: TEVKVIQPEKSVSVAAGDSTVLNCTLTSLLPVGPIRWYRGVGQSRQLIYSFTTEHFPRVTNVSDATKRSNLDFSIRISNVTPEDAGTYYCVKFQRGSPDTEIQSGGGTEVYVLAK
The experiment is described as follows: SPR. The essentials:
as §1
In turn, B2 returned a Kd of 27.8 nM. In other words, the double-digit nanomolar range.

Another experiment has as its target T4, BALBc mouse SIRP-α (mouse (BALB/c strain)).
T4 chain: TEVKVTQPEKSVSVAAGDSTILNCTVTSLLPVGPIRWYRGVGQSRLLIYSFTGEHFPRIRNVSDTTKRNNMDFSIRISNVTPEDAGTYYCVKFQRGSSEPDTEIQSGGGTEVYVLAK
The experiment is described as follows: SPR. The essentials: as §1
The molecule B2 came in with a Kd of 71.2 nM.

Another experiment has as its target T5, mouse 129 SIRP-α (mouse (129 strain), UniProt P97797 32-150).
T5 construct: also called m129
T5 chain: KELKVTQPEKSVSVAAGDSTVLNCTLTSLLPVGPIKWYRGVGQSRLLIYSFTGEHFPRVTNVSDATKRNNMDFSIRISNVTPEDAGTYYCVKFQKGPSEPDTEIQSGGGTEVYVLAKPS
The experiment is described as follows: SPR Koff +/-. The essentials: as §1
As to B1, the binding result was “no binding”.

For another experiment, the target named is T1, human SIRP-α v1. The experiment is described as follows: SPR, antibody on GLC chip. A digest of the protocol: (§2)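 Protein A-purified antibodies were diluted to 80 nM in 10 mM sodium acetate pH 4.5 and amine-coupled (~1000 RU) to a GLC chip of a ProteOn XPR36 biosensor. SIRP analytes were injected one-shot at 100, 33, 11, 3.7, 1.2 and 0 nM in PBS pH 7.4 with 0.01% Tween-20 at 25° C. Association ran 90 s at 100 μL/min and dissociation 1200 s. KD came from double-referenced data fitted globally to a Langmuir model, as kd/ka.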
The molecule B3 showed a Kd of 0.558 nM.
Still for that read-out and setting: with B4 the figure was 0.551 nM.
Molecule B5 registered a Kd of 0.717 nM.
For B1, the Kd is 0.183 nM.
Same read-out and setting: with B6 the figure was 0.15 nM; with B7, 0.192 nM.
On the same count and under the same terms, with B8 the figure was 0.317 nM; with B9, 0.215 nM.

The next experiment concerns the target T2, human SIRP-α v2. The experiment can be described thus: SPR, antibody on GLC chip. A digest of the protocol: as §2
The molecule B3 returned a Kd of 1.74 nM. This lies in the single-digit nanomolar range.
B4 displayed a Kd of 1.74 nM.
Still for that read-out and setting: with B5 the figure was 1.86 nM; with B1, 0.0682 nM; with B6, 0.0161 nM.
With B7, the Kd turned out to be 0.0175 nM.
B8 registered a Kd of 0.0875 nM.
Turning to B9, the Kd stood at 0.0688 nM. This Kd and that of the molecule before are within 1.5-fold of each other.

The next experiment addresses T6, cynomolgus SIRP-α (cynomolgus monkey, UniProt Q5TFQ8 30-148 (human entry), limits assumed).
T6 construct: also called cyno1
T6 chain: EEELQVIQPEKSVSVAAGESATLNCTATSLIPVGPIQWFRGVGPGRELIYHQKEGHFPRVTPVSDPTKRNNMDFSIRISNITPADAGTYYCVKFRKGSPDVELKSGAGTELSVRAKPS
The experiment is described as follows: SPR, antibody on GLC chip. The essentials:
as §2
As for B4, the affinity, expressed as Kd, was 2.11 nM.
As for B1, binding was put at a Kd of 0.112 nM. Against the preceding molecule, the Kd is about 19-fold lower.
The molecule B6 came in with a Kd of 0.0794 nM.
The same measure, in the same setting: as for B7, the figure is 0.127 nM.
The molecule B8 came in with a Kd of 0.195 nM.
Same read-out and setting: with B9 the figure was 0.118 nM.

In a further experiment the target is T3, NOD mouse SIRP-α. The experiment is described as follows: SPR, antibody on GLC chip. A digest of the protocol:
as §2
Molecule B3 gave a Kd of 0.678 nM. That is a sub-nanomolar value.
In turn, B4 gave a Kd of 0.596 nM.
Take B5: the Kd is 0.68 nM.
Take B6: the binding result is “no binding”.
The same measure, in the same setting: as for B7, the entry is “no binding”.
With B8, the binding result is recorded as “no binding”.
Still for that read-out and setting: as for B9, the entry is “no binding”.

Another experiment addresses T7, BL6 mouse SIRP-α (mouse (C57BL/6 strain), UniProt P97797 32-148).
T7 construct: also called C57BL/6
T7 sequence: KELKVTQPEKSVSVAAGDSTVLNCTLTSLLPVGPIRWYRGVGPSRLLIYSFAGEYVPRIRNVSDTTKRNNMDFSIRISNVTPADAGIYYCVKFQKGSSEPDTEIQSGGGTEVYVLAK
The experiment can be described thus: SPR, antibody on GLC chip. The essentials:
as §2
Molecule B3 yielded a Kd of 23.1 nM.
On the same count and under the same terms, with B4 the figure was 13.8 nM.
B5 gave a Kd of 15.3 nM.
B1: the binding result is reported as “no binding”.
On the same count and under the same terms, with B6 the entry was “no binding”; with B7, “no binding”.
B8: the binding result is “no binding”.
Same read-out and setting: as for B9, the entry is “no binding”.

The next experiment concerns the target T4, BALBc mouse SIRP-α. The experiment can be described thus: SPR, antibody on GLC chip. A digest of the protocol:
as §2
Regarding B3, the Kd came to 0.416 nM. That is a sub-nanomolar value.
B4 gave a Kd of 0.361 nM.
B5: the Kd worked out at 0.422 nM.
Consider B1, for which the binding result was “no binding”.
Same read-out and setting: as for B6, the entry is “no binding”; as for B7, “no binding”; as for B8, “no binding”.
For the molecule B9, the binding result is recorded as “no binding”.

The target of a further experiment is T8, human SIRPβ isoform 1 (human, UniProt O00241 30-148).
T8 construct: also called Beta; Human SIRPb
T8 sequence (O00241 30-148 limits assumed): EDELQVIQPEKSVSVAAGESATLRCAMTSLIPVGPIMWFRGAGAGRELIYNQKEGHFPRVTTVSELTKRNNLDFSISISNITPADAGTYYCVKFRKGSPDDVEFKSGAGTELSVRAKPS
The experiment is described as follows: SPR, antibody on GLC chip. A digest of the protocol: as §2
As for B3, the Kd came to 3.54 nM.
The same measure, in the same setting: with B4 the figure was 2.22 nM; with B5, 3.16 nM.
On to B1, for which the Kd was found to be 0.342 nM.
As to B6, the Kd came to 0.16 nM. Compared with the last molecule, the Kd is about 2.1-fold lower.
In turn, B7 had a Kd of 0.188 nM.
Consider B8, for which binding was put at a Kd of 0.46 nM. This Kd is about 2.4-fold higher than that of the molecule before.
On the same count and under the same terms, as for B9, the figure is 0.337 nM.

A further experiment concerns the target T9, human SIRPγ isoform 1 (human, UniProt Q9P1W8 29-147).
T9 construct: also called Gamma; Human SIRPg
The experiment is described as follows: SPR, antibody on GLC chip. The essentials:
as §2
The molecule B3 gave an equilibrium dissociation constant (Kd) of 16.5 nM. That is a double-digit nanomolar value.
The molecule B4 came in with an equilibrium dissociation constant (Kd) of 33.5 nM. This Kd lies about 2-fold higher than the previous one.
Still for that read-out and setting: with B5 the figure was 40 nM.
On the same count and under the same terms, as for B1, the figure is 0.267 nM.
The same measure, in the same setting: as for B6, the figure is 0.533 nM; as for B7, 0.733 nM.
For B8, the Kd stood at 0.336 nM.
For B9, binding was characterised by a dissociation constant (Kd) of 0.263 nM.
